Values quoted from earlier work as cited in paper PMC5413910.

Biological target: linear (Met1-linked) diubiquitin (Homo sapiens) (UniProt P0CG48)

Sequence of OTULIN (Q96BN8 whole entry): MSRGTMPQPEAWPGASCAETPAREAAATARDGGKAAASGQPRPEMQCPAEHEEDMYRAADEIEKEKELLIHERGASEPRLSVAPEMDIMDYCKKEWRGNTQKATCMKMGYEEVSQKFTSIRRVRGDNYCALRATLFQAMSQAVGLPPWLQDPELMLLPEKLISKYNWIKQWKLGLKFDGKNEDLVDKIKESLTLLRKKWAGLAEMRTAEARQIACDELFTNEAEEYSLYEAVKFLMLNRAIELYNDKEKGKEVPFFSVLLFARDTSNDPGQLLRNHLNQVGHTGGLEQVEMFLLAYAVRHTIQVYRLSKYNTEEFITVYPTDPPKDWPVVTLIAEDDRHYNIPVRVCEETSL

Kd: 150 nM
Substance: OTULIN (from UniProt Q96BN8)
